{"source": "patent US20100111959A1", "binders": {"B1": {"name": "mAb Lc-2B03 + Hc2 M34S, M100L (antibody, human IgG1, V domains shown)", "VH": "QVTLKESGPVLVKPTETLTLTCTVSGFSLSTYGSGVGWIRQPPGKALEWLAHIWWDDVKRYNPALKSRLTISKDTSKSQVVLTMTNMDPVDTATYYCARLGSDYDVWFDYWGQGTLVTVSS", "VL": "EIVLTQSPATLSLSPGERATLSCRASKSISKYLAWYQQKPGQAPRLLIYSGSTLQSGIPARFSGSGSGTDFTLTISSLEPEDFAVYYCQQHDYPYTFGQGTKLEIKR"}, "B2": {"name": "mAb Lc-2B03 + Hc2 M34V, M100L (antibody, human IgG1, V domains shown)", "VH": "B1 VH with S34V", "VL": "B1 VL"}, "B3": {"name": "mAb Lc-2B03 + Hc2 M34Q, M100L (antibody, human IgG1, V domains shown)", "VH": "B1 VH with S34Q", "VL": "B1 VL"}, "B4": {"name": "mAb Lc-2B03 + Hc2 T31S, M34S, M100L, V106I (antibody, human IgG1, V domains shown)", "VH": "B1 VH with T31S, V106I", "VL": "B1 VL"}, "B5": {"name": "mAb Lc-2B03 + Hc2 T31S, M34S, M100L (antibody, human IgG1, V domains shown)", "VH": "B1 VH with T31S", "VL": "B1 VL"}, "B6": {"name": "mAb Lc-2B03 + Hc2 T31S, M34V, M100L (antibody, human IgG1, V domains shown)", "VH": "B1 VH with T31S, S34V", "VL": "B1 VL"}, "B7": {"name": "mAb Lc-2B03 + Hc2 M34E, M100L (antibody, human IgG1, V domains shown)", "VH": "B1 VH with S34E", "VL": "B1 VL"}, "B8": {"name": "mAb Lc-2B03 + Hc2 M34V, M100L, V106I (antibody, human IgG1, V domains shown)", "VH": "B1 VH with S34V, V106I", "VL": "B1 VL"}, "B9": {"name": "mAb Lc-2B03 + Hc2 M34S, M100L, V106I (antibody, human IgG1, V domains shown)", "VH": "B1 VH with V106I", "VL": "B1 VL"}, "B10": {"name": "mAb Lc-2B03 + Hc2 M34E, M100L, V106I (antibody, human IgG1, V domains shown)", "VH": "B1 VH with S34E, V106I", "VL": "B1 VL"}, "B11": {"name": "Lc15Hc1 (antibody, human IgG1, V domains shown)", "VH": "B1 VH with V10A, E16Q, V24F, S34M, S78N, L100M", "VL": "VIWMTQSPSLLSASTGDRVTISCRASKSISKYLAWYQQKPGKAPELLIYSGSTLQSGVPSRFSGSGSGTDFTLTISCLQSEDFATYYCQQHNEYPYTFGGGTKVEIK"}, "B12": {"name": "Lc3Hc6 (antibody, human IgG1, V domains shown)", "VH": "QVQLVESGGGVVQPGRSLRLSCAASGFSLSTYGMGVGWVRQAPGKGLEWVAHIWWDDVKRYNPALKSRFTISRDNSKNTLYLQMNSLRAEDTAVYYCARMGSDYDVWFDYWGQGTLVTVSS", "VL": "B11 VL with V1A, W3Q, M4L, L10S, T15V, S22T, E45K, C77S, S80P"}, "B13": {"name": "Lc7Hc6 (antibody, human IgG1, V domains shown)", "VL": "DIQLTQSPSSLSASVGDRVTITCRASKSISKYLAWYRQKPGKVPKLLIYSGSTLQSGVPSRFSGSGSGTDFTLTISSLQPEDVATYYGQQHNEYPYTFGQGTKLEIK", "VH": "B12 VH"}, "B14": {"name": "Lc7Hc1 (antibody, human IgG1, V domains shown)", "VL": "B13 VL", "VH": "B1 VH with V10A, E16Q, V24F, S34M, S78N, L100M"}}, "note": "Changes are numbered by the printed parent chain. Names and notes keep the numbering of the source. Values joined by “and” are separate entries in the source; they are usually repeats but may differ in a detail not shown here. Equal values may be shown once."}
{"biological_target": "human IL-13 R130Q variant (R110Q of the mature chain) (human) (UniProt P35225)", "assay": "Biacore SPR, mAb from CHO", "units": {"Kd": "nM"}}
{"binder": "B1", "Kd": 0.0184}
{"binder": "B2", "Kd": 0.019}
{"binder": "B3", "Kd": 0.0251}
{"binder": "B4", "Kd": 0.0211}
{"binder": "B5", "Kd": 0.0101}
{"binder": "B6", "Kd": 0.0058}
{"biological_target": "human IL-13 R130Q variant (R110Q of the mature chain) (human) (UniProt P35225)", "assay": "Biacore SPR, mAb from HEK293"}
{"binder": "B1", "Kd": "0.0014 nM"}
{"binder": "B7", "Kd": "0.0076 nM"}
{"binder": "B2", "Kd": "0.0164 nM"}
{"binder": "B8", "Kd": "0.0252 nM"}
{"binder": "B9", "Kd": "0.0205 nM and 0.0209 nM"}
{"binder": "B10", "Kd": "0.0114 nM"}
{"binder": "B3", "Kd": "0.0243 nM"}
{"binder": "B4", "Kd": "0.0152 nM"}
{"binder": "B5", "Kd": "0.0123 nM"}
{"binder": "B6", "Kd": "0.0037 nM"}
{"biological_target": "human IL-13 R130Q variant (R110Q of the mature chain) (human) (UniProt P35225)", "assay": "IL-13Ra2 binding inhibition ELISA, crude supernatant", "units": {"Percent Inhibition IL-13 R130Q (333 ng/ml) to Ra2": "%"}}
{"binder": "B11", "Percent Inhibition IL-13 R130Q (333 ng/ml) to Ra2": 44}
{"binder": "B12", "Percent Inhibition IL-13 R130Q (333 ng/ml) to Ra2": 14}
{"binder": "B13", "Percent Inhibition IL-13 R130Q (333 ng/ml) to Ra2": 4}
{"binder": "B14", "Percent Inhibition IL-13 R130Q (333 ng/ml) to Ra2": 6}
{"biological_target": "human IL-13 R130Q variant (R110Q of the mature chain) (human) (UniProt P35225)", "assay": "direct binding ELISA, crude supernatant, relative to Lc16Hc7", "units": {"Percent IL-13 R130Q (30 ng/ml) Binding": "%"}}
{"binder": "B11", "Percent IL-13 R130Q (30 ng/ml) Binding": 76.2}
{"binder": "B12", "Percent IL-13 R130Q (30 ng/ml) Binding": 26.6}
{"binder": "B13", "Percent IL-13 R130Q (30 ng/ml) Binding": -0.3}
{"binder": "B14", "Percent IL-13 R130Q (30 ng/ml) Binding": -1.4}
